Assay results: the DeepSol protein solubility set

Assay: soluble on expression in E. coli; label from the status in PepcDB or PDB records
With “MGHHHHHHSHDDDDLNTIEFKILAYYTRHHVFKSTPALFSPKLLRTRSLSQRGLGNCSANESWTEVSWPCRNSQSSEKAINLGKKKSSWKAFFGVVEKEDSQSTPAKVSAQGQRTLEYQDSHSQQWSRCLSNVEQCLEHEAVDPKVISIANRVAEIVYSWPPPQATQAGGFKSKEIFVTEGLSFQLQGHVPVASSSKKDEEEQILAKIVELLKYSGDQLERKLKKDKALMGHFQDGLSYSVFKTITDQVLMGVDPRGESEVKAQGFKAALVIDVTAKLTAIDNHPMNRVLGFGTKYLKENFSPWIQQHGGWEKILGISHEEVD” the “soluble on expression in E. coli” value was “not soluble”. In the case of “TPLSRSERIELQSLLSARQYDAGAPDGIIGANTRKAIRSAQQSFGWPADGYPTHELLEALRKPVGQ”, the “soluble on expression in E. coli” value is reported as “not soluble”. For “MKMKKITAMSMAALMAATMIPSVPVMADGGGKVYYLNFKPEQDEAWQNLAKAYTEETGTDVTVVTAASGQYETTLQSEMAKSDAPTLFQVNGPVGLKNWKDYCYDLKDADITKELTSDAYELKDGDAVAGIAYVIESYGLITNKTLLEKAGYTLDDIKSFDDLKKVADDIQARKDEIGVKGAFTSAGMDGSSDWRFKTHLANLPIYYEYKADGIDDTEAIKGTYLDQYKNVFDLYITDSTCDGSELSAKTADDSRNEFVNGDAVFYQNGSWEYAELAKTYSDDELAMIPIYFGVDDENEGLATGTENYWCVNKNASEEDVQATLDFMNWCVTSEAGTKSMSEDMGFTIPFKTAVAPTNVFVKQDAEYTEAGLTPVSWNFTTMPSEEWKNGLGTALTAYAAGTGDWDAVVSAFVDGWATEKALSE”, the “soluble on expression in E. coli” value was “not soluble”. With “MGSDKIHHHHHHMTSREEFLEKLAQAGTLNLIFQLTDQCALSCRYCFAKGSHPSGGLRIADDLLDAAIRSAFDTRHHQVSFEWTGGEPFFAGIDFYRKVDRLQKKYATKPYANTIQTSGYVHDRELIAWLAGHGFRISSTIDGPPELHDFQRPVNGGGPSLGAVLATRETIIEHQGHCGCICTVTRNSLGKEGAILDYYRSLGIEAFHSNPYYYFSKNLVGDESLALDADGYAAYFIAQFNAWFEGGRKLPMPGTLNYILRSLTAGAGLKQSVCTFGGRCLTNFLAITPDGDAWLCPKFAGFDEMRLGNVGKMAITDILSDANPAMARLIDERLDAIHTCEADECRFQYLCNAGCPYYSFIASGGRNIAVKDSLCTGKQLLFEYLESVVELIDPARLPEPSPLEHA” the “soluble on expression in E. coli” value was “not soluble”. With “MGSDKIHHHHHHMTFAQIQTFLAVARLGNFHAAARQLNVTQAAVSARVRQLEEELDLRLFERGRRGAELTEAGRFLLPGAEAIASTWTTISKDARHFYAGRVPLRLGGQLSIWDQQLVDLVIWVEETLGALPLALNFDHEMNVQDAIRNGVLDFALTHEQPAPDLTGVALPAERLVLVGSEPFDLGQSDLPLFMNFQLGGQYDAFVARHLSGHAGQHIMMGNCAMGLRYLRKRGGIAFFPVSMVVEDIQHGHLFPVQGVPEMELACNAVYHPSSVLGDLTAQIATAARSLRSREPVVALDTMS” the “soluble on expression in E. coli” value was “not soluble”. In the case of “MGSDKIHHHHHHMPKPTKIVVLLKGYPRLSETFIAQELLGLEQAGFALELVAMRRPTDKKRHPVHDEIQAPVHYLPEYLHEEPGRVLKALWAVRRLPGFRPVLTQFFKDLRRDFSRNRFRRLGQAMVLVAEWPGKADWLHAHFIHTPASVAFYASLLGSRGFSVSAHAKDIWTSESWDLADKLAHATWVVTCTKVGFDRLSALADGRGSVHLSYHGLDLDRFPHFEGVRPARDGSDTADPLRLLSVGRAVKKKGYDVLLRALSALPADLNWHFTHIGGGDELVRLQALADQLGIASRITWKGAMDQRDVLTHYRDSDLFTLACRITADGDRDGLPNVLVEAASQGLMPVSTTVSGISELFVDGENGLLVEPDDAQALAVALEKAMRDPALRARLGSAAEGKVRRDFDYRNSIRDLTDLFSGRQ”, the “soluble on expression in E. coli” value is reported as “not soluble”. With “SNAMATKLVIAIVQDKDANYLSDQFIDQNVRATKLSTTGGFLQSGNTTFMIGIEEERVPEVLEIIKKASHTREEFMTPSVNMDVNMEGTTAYPIKVQVGGATVLVLPVDQFERF” the “soluble on expression in E. coli” value was “soluble”. For “MVNKVLVANRGEIAVRIIRACKELGIPTVAIYNEVESTARHVKLADEAYMIGTDPLDTYLNKQRIINLALEVGADAIHPGYGFLAENAEFAKMCEEAGITFIGPHWKVIELMGDKARSKEVMKKAGVPVVPGSDGVLKSLEEAKALAREIGYPVLLKATAGGGGRGIRICRNEEELVKNYEQASREAEKAFGRGDLLLEKFIENPKHIEYQVLGDKHGNVIHLGERDCSIQRRNQKLVEIAPSLILTPEKREYYGNIVTKAAKEIGYYNAGTMEFIADQEGNLYFIEMNTRIQVEHPVSEMVTGIDIVKWQIKIAAGEPLTIKQEDVKFNGYAIECRINAEDPKKNFAPSTRVIERYYVPGGFGIRVEHAAARGFEVTPYYDSMIAKLITWAPTWDEAVERMRAALETYEITGVKTTIPLLINIMKEKDFKAGKFTTKYLEEHPEVFEYEE”, the “soluble on expression in E. coli” value was “soluble”. With “MGNSHSVTTALHSVLKQREIKVSTRTLETFIKEIERISPWYACSGSLTLSSWEKLREDLAKEQQNGKLKAGTMPLWKLVRSCLEDERCRPAIITGQAILEEAQDSMAETEWCERLGAPKKGKCAQSKKPFQRP” the “soluble on expression in E. coli” value was “soluble”. In the case of “APSYPEYTREEVGRHRSPEERVWVTHGTDVFDVTDFVELHPGGPDKILLAAGGALEPFWALYAVHGEPHVLELLQQYKVGELSPDEAPAAPDAQDPFAGDPPRHPGLRVNSQKPFNAEPPAELLAERFLTPNELFFTRNHLPVPAVEPSSYRLRVDGPGGGTLSLSLAELRSRFPKHEVTATLQCAGNRRSEMSRVRPVKGLPWDIGAISTARWGGARLRDVLLHAGFPEELQGEWHVCFEGLDADPGGAPYGASIPYGRALSPAADVLLAYEMNGTELPRDHGFPVRVVVPGVVGARSVKWLRRVAVSPDESPSHWQQNDFKGFSPCVDWDTVDYRTAPAIQELPVQSAVTQPRPGAAVPPGELTVKGYAWSGGGREVVRVDVSLDGGRTWKVARLMGDKAPPGRAWAWALWELTVPVEAGTELEIVCKAVDSSYNVQPDSVAPIWNLRGVLSTAWHRVRVSVQD”, the “soluble on expression in E. coli” value is reported as “soluble”. For “MGSDKIHHHHHHMKNKVGIMYDNISGNTGDVAIGISLRKIMKELKVDFDEILLNNIDVLKYNTVIIGGGHLLRENSDFFYDKFKLRGPNILNSVGVVGNPNDLQYLEEYKYVTFRSEGDRKKAGYLNKKSSVVPCTTMLLDDLQDFPIHIKRPAIGVHLIPNIFSKEEEGLFVKWASKLPYTIYFIPITHYNYDYIYMSKLSQRISNSRVLPIMKPLEIFTFIGKLDYLITCSLHGSIFSYIHNVPFILMEQEKSRFFLEDRGLQGYLFSNLKEIIGLTEKVINNPLDYSNLIVKDKKILEEHVENIKQIVPNNSTYILSKECTESDEITQLNLQNGILQINLSKLTYELEAYKKEIKGINFRLKDEESKHMYYKKELKKIYRSRGWKALKKFYSLKDFISKKINGA”, the “soluble on expression in E. coli” value was “not soluble”. In the case of “GLDNELSLVDGQDRTLTVQQWDTFLNGVFPLDRNRLTREWFHSGRAKYIVAGPGADEFEGTLELGYQIGFPWSLGVGINFSYTTPNILIDDGDITRPPFGLNSVITPNLFPGVSISADLGNGPGIQEVATFSVDVSGAEGGVAVSNAHGTVTGAAGGVLLRPFARLIASTGDSVTTYGEPWNMN”, the “soluble on expression in E. coli” value is reported as “soluble”. For “MGSDKIHHHHHHMANSIPSGGNAFALPFAGSRHQFISATCTPDTFSDCLSQSLPPSSNEQAPLGVLRLVVAVSNQKQIGTVLEQLTKDFQALLSRAEVVVQPPFSGQVQISAWLVDTAAIADAPAVIGSPAALQWLFSASNAHALDDTQVSPAFSRQFYDGLESAHAQGHMPDDLLRTWIYIGGITQGPHDETRYQRVNAARQDAFREVSIGMGALCSPFPASTGIGTHGSSLTLGMLSCKIRSGMRVVALENRRQTSAFQYPKEESLIAPLFSRAVAILGDAQAMVFVSGTASIIGAKSVHVGNIEQQTRQTLENINNLLSARLLSDYDCYPATSGLESIVSYTVYIKRREDITVVRAVCAALLPERAVATFVQADVCRTELLVEIEAVAVMPE”, the “soluble on expression in E. coli” value was “not soluble”. With “MGATMKPSNKESVQDTVARLRENRNQQQSKVGKNATHSSKEQTPLDTPTRSKASKNAKAVSAAERKTEANKIIKHLLLGELTQGQALKSLRINILGLKQDVFARLVDVSRKTLSDIENDRGSYNTEILNKVFKPFSLKIGLLPSSPDALKSLLMDGEDG” the “soluble on expression in E. coli” value was “soluble”. With “HMGCAFLTYCARDSALKAQSALHEQKTLPGMNRPIQVKPADSESRGEDRKLFVGMLGKQQTDEDVRKMFEPFGTIDECTVLRGPDGTSKGCAFVKFQTHAEAQAAINTLHSSRTLPGASSSLVVKFADTEKERGLRRMQQVATQLGMFSPIALQFGAYSAYTQALMQQQAALVAAHSAYLSPMATMAAVQMQHMAAINANGLIATPITPSSGTSTPPAIAATPVSAIPAALGVNGYSPVPTQPTGQPAPDALYPNGVHPYPAQSPAAPVDPLQQAYAGMQHYTAAYPAAYSLVAPAFPQPPALVAQQPPPPPQQQQQQQQQQQQQQQREGPDGCNIFIYHLPQEFTDSEILQMFVPFGHVISAKVFVDRATNQSKCFGFVSFDNPASAQAAIQAMNGFQIGMKRLKVQLKRPKDANRPY” the “soluble on expression in E. coli” value was “soluble”. In the case of “SVFADQVGVQVIGVNDFHGALDNTGTANMPDGKVANAGTAAQLDAYMDDAQKDFKQTNPNGESIRVQAGDMVGASPANSGLLQDEPTVKNFNAMNVEYGTLGNHEFDEGLAEYNRIVTGKAPAPDSNINNITKSYPHEAAKQEIVVANVIDKVNKQIPYNWKPYAIKNIPVNNKSVNVGFIGIVTKDIPNLVLRKNYEQYEFLDEAETIVKYAKELQAKNVKAIVVLAHVPATSKNDIAEGEAAEMMKKVNQLFPENSVDIVFAGHNHQYTNGLVGKTRIVQALSQGKAYADVRGVLDTDTQDFIETPSAKVIAVAPGKKTGSADIQAIVDQANTIVKQVTEA”, the “soluble on expression in E. coli” value is reported as “not soluble”. For “MGSDKIHHHHHHMRVEIIFLGCGGGRWATITQKKATGGFRIHTNELRMHVDPGPGAIVRLNELKISPWRTNALFISHCHPDHYTDGEIIVEAITQGMTKKRGVFLGSLSVVEGFGEYEYVVSKYHQSKLEEVRVLYPGDSAELYDTTIKATHTKHGDPFGIGFRLSTIYGDIGYTSDTEFIPQLIEDFDGVRILIANIVRKKNERIKGHLCSNDAIDLINSMNKKPELLIMNHMGVKMTNPQIEAEYISQNTGIEVIPARLGLKVELLNGKYKYQLIK”, the “soluble on expression in E. coli” value was “not soluble”. With “MGSDKIHHHHHHMERVHVDIRQLQFFAEIVRYGSFTKAAERLHVAQPAVSMAMKKLEEELDLILFNRQERRISLTAEGEIFLRHAEKILDEVKSAETEMEELRGLAKGEVRVGIPPMMSAYFFPEIIRDFSNSYPDLHLTVSGEGASKIQKMIIDGELDMGVVAGASFPETLEVRRFLREEVIVCVPRSHPLASRGSLTLHEFARHPLIFYREGYYLRELILDVLRGAGLSPTIRFETNLYTLVKSLVQKGMGISVFLRMVVAEDDDLTAISLDPPLFLDLLIAWKKHGYLSRANRAFADYLLEKGSSAAL” the “soluble on expression in E. coli” value was “not soluble”. In the case of “GTQSTHESLKPQRVQFQSRNFHNILQWQPGRALTGNSSVYFVQYKIYGQRQWKNKEDCWGTQELSCDLTSETSDIQEPYYGRVRAASAGSYSEWSMTPRFTPWWETKIDPPVMNITQVNGSLLVILHAPNLPYRYQKEKNVSIEDYYELLYRVFIINNSLEKEQKVYEGAHRAVEIEALTPHSSYCVVAEIYQPMLDRRSQRSEERCVEIP”, the “soluble on expression in E. coli” value is reported as “soluble”. In the case of “MIELYSNAKLPTEFGLFRIYTFVNDENKDHAVIVRGDPRGKENVPLRIHSECLTGDVLGSLRCDCRDQLIQSLRYLGRQEYGMLIYLRQEGRGIGLLNKIKAYSLQDMGADTVEANLKLGLPVDSRNYSFAAEVLRYFEIKSIYIMTNNPEKIKSLIESGINVKGRIPIFSDPTPYDKFYLETKKTKLGHEIENILEHHHHHH”, the “soluble on expression in E. coli” value is reported as “soluble”.
